{"source": "patent US8575097B2", "about": "“Exendin variant and conjugate thereof” (Pegbio Co., Ltd., priority 2009, dated 2013)", "molecules": {"B1": {"name": "chicken ovalbumin (protein, UniProt P01012 2-386, looked up)", "Ovalbumin": "GSIGAASMEFCFDVFKELKVHHANENIFYCPIAIMSALAMVYLGAKDSTRTQINKVVRFDKLPGFGDSIEAQCGTSVNVHSSLRDILNQITKPNDVYSFSLASRLYAEERYPILPEYLQCVKELYRGGLEPINFQTAADQARELINSWVESQTNGIIRNVLQPSSVDSQTAMVLVNAIVFKGLWEKAFKDEDTQAMPFRVTEQESKPVQMMYQIGLFRVASMASEKMKILELPFASGTMSMLVLLPDEVSGLEQLESIINFEKLTEWTSSNVMEERKIKVYLPRMKMEEKYNLTSVLMAMGITDVFSSSANLSGISSAESLKISQAVHAAHAEINEAGREVVGSAEAGVDAASVSEEFRADHPFLFCIKHIATNAVLFFGRCVSP", "notes": "chicken ovalbumin, albumin group in the guinea pig allergy test"}}, "system": "guinea pigs", "assay": "Systematically allergic reaction in guinea pigs (Example 23)", "assay_type": "in vivo, guinea pig", "settings": "albumin 240 mg/kg via toe vein", "text": "44 male healthy guinea pigs were provided, and the body weight of each guinea pig was about 300 g.", "data": [{"molecule": "B1", "values": [{"measurement": "time to death after stimulation", "result": "< 2", "unit": "min"}]}]}
